Target: endogenous mouse sortilin (Sort1) of mouse brain lysate, mouse cortical neurons and mice in vivo (mouse) (UniProt Q6PHU5)
Test: cell-based or functional assay

endogenous mouse sortilin (Sort1) of mouse brain lysate, mouse cortical neurons and mice in vivo (mouse), sequence (Q6PHU5 74-825 limits assumed): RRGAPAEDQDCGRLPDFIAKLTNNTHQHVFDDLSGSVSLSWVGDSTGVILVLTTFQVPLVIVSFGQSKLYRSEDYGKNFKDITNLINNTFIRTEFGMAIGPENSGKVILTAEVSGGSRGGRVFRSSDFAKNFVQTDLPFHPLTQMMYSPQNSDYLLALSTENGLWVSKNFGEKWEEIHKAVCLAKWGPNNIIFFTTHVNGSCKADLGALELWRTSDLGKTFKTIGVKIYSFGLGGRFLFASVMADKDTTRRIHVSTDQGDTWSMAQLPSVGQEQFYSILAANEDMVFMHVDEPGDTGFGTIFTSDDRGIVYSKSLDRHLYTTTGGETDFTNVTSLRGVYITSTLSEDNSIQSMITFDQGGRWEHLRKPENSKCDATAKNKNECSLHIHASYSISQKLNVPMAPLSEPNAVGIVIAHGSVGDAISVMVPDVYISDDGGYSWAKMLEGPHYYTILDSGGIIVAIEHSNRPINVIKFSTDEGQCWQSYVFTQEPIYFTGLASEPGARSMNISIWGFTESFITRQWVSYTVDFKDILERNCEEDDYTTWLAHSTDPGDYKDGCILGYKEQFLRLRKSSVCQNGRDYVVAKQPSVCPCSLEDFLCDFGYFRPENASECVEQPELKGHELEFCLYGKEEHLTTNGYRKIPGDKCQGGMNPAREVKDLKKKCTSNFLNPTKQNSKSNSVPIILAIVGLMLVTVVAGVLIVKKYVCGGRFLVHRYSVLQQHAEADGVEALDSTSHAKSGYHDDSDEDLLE

- fold-increase in PGRN level in brain of sortilin -/- mice: 3 fold
- fold-increase in PGRN level in serum of sortilin -/- mice (immunoblot): 4 fold
Substance: endogenous mouse PGRN (serum and brain of mice) (from UniProt P28798 18-589) (ligand)

From patent publication US20120039865A1, “IDENTIFICATION OF SORTILIN AS A NEURONAL RECEPTOR FOR THE FRONTOTEMPORAL DEMENTIA PROTEIN, PROGRANULIN” (Yale University, priority 2008, published 2012)
